One substance from paper PMC3459938 can be followed below.

Assay in all cases: ELISA
Experiment [1] concerns the target construct 5 (two WW domains joined by QGLQNEE, GFP fusion).
Experiment [2] addresses WW3-GFP (human) (UniProt P46934).
In experiment [3] the target is construct 4 (two WW domains joined by QGLQNEE, GFP fusion).
Experiment [4] deals with construct 2 (WW2-WW3-GFP, natural linker) (human) (UniProt P46934).
The target of experiment [5] is WW2-GFP (construct 7) (human) (UniProt P46934).
The target of experiment [6] is WW_(2-3-4)-GFP (human) (UniProt P46934).
The target in experiment [7] is WW4-GFP (construct 9) (human) (UniProt P46934).

For “Adenovirus serotype 3 Penton-Dodecahedron (from UniProt Q2Y0H9 1-544; P04501 1-319) (complex)”, the decrease in affinity relative to WW (2-3-4)-GFP in experiment [1], in experiment [3] and in experiment [4] was 20% throughout. The Kd (in general, the constant that tells how readily two partners part at equilibrium) worked out at 0.0824 nM in experiment [2] and 0.0525 nM in experiment [6]. Also, the percent Pt-Dd binding relative to WW (2-3-4)-GFP in experiment [2] was determined as 80%; in experiment [5] it was 13%; in experiment [7], 40%.
